Reference: patent publication US20240182596A1 (TUBULIS, published 2024)

Legend:
[1] = biological target: T1, human Napi2b-mCherry on HEK293 cells (human, UniProt O95436 1-690); assay: flow cytometry on HEK293 cells stably expressing human full-length NaPi2b-mCherry, Alexa-dye anti-human IgG H+L secondary antibody, MFI ratio, one-site specific binding fit; the Kd table prints no unit, the concentration axis is in nM
T1 construct: also called Napi2b (SLC34A2); HEK293 cells overexpressing Napi2b
T1 sequence: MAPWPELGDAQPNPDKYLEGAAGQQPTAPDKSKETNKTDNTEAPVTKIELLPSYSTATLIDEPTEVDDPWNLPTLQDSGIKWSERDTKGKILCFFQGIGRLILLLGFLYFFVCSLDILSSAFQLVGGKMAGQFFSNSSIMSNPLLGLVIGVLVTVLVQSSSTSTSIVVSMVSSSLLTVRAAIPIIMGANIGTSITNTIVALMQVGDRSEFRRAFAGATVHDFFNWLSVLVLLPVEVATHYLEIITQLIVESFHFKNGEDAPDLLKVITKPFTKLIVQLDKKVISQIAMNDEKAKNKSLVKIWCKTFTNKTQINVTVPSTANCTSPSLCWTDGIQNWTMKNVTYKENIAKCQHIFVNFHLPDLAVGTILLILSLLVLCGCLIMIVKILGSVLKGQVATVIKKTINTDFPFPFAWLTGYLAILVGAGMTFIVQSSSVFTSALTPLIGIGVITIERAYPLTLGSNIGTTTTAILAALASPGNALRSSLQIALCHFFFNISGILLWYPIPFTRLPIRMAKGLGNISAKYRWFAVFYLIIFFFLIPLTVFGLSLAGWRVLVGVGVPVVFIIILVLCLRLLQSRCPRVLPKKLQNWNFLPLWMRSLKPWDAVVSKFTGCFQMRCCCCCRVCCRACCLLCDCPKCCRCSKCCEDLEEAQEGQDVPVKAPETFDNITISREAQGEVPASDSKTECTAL
Description: (§1) HEK293 cells stably overexpressing human and rat Napi2b were generated by stable integration of a human or rat full-length Napi2b-mCherry-(GGGS)3x-mCherry expression construct under control of a human EF1 promoter and a Puromycin-selection cassette under a CMV promoter into the parental HEK293 cell line. In brief, cells were transfected with the linearized plasmids using Lipfectamine 2000 (Thermo Fisher) and selected with Puromycin antibiotic. Cells were then single cell cloned in 96-well plates via serial dilution under continuous antibiotic selection. Clones were screened for target expression via flow cytometry and mCherry fluorescence via flow cytometry and fluorescence microscopy. Target- and mCherry-positive clones were expanded and used for further experiments. […] Binding of antibodies was investigated on mCherry-positive cells. Mean fluorescence intensity (MFI) ratios were normalized to the secondary antibody control. The assay was performed in duplicates and data points were analyzed by a non-linear regression using a one-site specific binding model to derive KD values using Prism 9 software.

[2] = biological target: T2, purified recombinant human Napi2b antigen consisting of Napi2b-extracellular-loop2 expressed as … (human, UniProt O95436 234-362, limits assumed); assay: ELISA, coated Napi2b-extracellular-loop2-Fc-6-His, apparent KD from one-site fit
T2 construct: Expressed in Expi-HEK293 cells; also called immobilized human NaPi2B; not shown: Fc part; 6-His tag
T2 sequence: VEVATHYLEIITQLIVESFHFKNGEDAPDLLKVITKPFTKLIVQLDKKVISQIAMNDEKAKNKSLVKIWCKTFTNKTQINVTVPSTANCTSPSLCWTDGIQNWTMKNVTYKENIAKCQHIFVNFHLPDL

[3] = biological target: T2, purified recombinant human Napi2b …; assay: ELISA on the isolated immobilized protein; table column Binding KD (nmol/L), ELISA
[4] = biological target: T3, human NaPi2b on NaPi2b-positive cell lines OVCAR-3 and HCC-78 (human, UniProt O95436 1-690); assay: flow cytometry on OVCAR-3 cells; table column Binding KD (nmol/L), FACS (OVCAR-3)
T3 construct: Endogenous protein
T3 sequence: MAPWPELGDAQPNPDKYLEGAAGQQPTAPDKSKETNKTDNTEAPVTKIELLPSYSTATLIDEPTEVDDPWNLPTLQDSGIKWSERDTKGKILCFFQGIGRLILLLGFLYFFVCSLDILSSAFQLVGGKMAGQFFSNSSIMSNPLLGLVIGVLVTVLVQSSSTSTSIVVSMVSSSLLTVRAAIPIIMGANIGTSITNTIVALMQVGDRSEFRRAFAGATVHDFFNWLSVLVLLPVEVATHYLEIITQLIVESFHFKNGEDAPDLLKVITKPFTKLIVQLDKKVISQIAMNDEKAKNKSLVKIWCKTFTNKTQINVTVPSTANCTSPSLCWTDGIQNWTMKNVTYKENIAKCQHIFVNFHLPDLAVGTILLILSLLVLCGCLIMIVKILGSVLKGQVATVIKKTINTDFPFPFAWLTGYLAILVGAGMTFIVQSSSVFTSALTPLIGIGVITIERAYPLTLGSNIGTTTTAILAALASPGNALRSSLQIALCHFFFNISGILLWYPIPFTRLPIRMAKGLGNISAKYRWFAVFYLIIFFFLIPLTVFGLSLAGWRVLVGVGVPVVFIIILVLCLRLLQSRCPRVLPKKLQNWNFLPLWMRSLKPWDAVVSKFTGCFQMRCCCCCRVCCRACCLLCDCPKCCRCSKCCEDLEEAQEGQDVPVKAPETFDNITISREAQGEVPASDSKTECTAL

[5] = biological target: T4, HEK293 cyno-NaPi2B-mCherry (Macaca fascicularis, UniProt A0A2K5UHY1); assay: flow cytometry on HEK293 cells stably expressing cynomolgus full-length NaPi2b-mCherry, Alexa-dye anti-human IgG H+L secondary antibody, MFI ratio, one-site specific binding fit; the Kd table prints no unit, the concentration axis is in nM
T4 construct: full-length mCherry fusion stably expressed on HEK293 cells; also called cynomolgus full-length NaPi2b-mCherry on HEK293 cells
T4 sequence (target on cells): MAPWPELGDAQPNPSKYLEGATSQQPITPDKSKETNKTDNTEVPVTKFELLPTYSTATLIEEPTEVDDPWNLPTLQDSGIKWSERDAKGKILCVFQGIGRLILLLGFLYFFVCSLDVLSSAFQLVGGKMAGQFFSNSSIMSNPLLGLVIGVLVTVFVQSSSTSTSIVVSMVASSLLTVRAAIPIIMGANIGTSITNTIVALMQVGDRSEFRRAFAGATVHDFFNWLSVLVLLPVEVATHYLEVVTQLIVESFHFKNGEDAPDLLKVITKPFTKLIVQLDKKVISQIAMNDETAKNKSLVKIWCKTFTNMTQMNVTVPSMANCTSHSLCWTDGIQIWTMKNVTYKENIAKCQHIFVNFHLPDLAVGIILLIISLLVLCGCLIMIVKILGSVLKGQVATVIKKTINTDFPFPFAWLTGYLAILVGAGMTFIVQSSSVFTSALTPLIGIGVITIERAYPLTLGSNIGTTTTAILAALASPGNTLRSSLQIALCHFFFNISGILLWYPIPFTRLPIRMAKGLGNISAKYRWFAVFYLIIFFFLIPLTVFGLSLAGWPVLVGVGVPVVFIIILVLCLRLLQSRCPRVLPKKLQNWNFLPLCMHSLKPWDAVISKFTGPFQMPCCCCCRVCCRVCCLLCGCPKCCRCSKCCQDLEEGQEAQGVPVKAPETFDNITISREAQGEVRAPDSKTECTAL
Description: as §1

[6] = biological target: T3, human NaPi2b on NaPi2b-positive cell …; assay: flow cytometry on NaPi2b-positive OVCAR-3 cells, Alexa-dye-labeled anti-human IgG H+L secondary antibody, MFI ratio normalized to the non-specific binding control
Protocol: (§2) To determine concentration-dependent binding, NaPi2b-positive OVCAR-3 and HCC-78 were incubated with antibodies in concentrations ranging from 0.00075 to 30 μg/ml, stained with an Alexa-dye-labeled anti-human IgG H+L secondary antibody (Thermo Fisher Scientific), and analyzed by flow cytometry. Mean fluorescence intensity (MFI) ratios were normalized to the non-specific binding control. The assay was performed in duplicates and data points were analyzed by a non-linear regression using a one-site specific binding model using Prism 9 software.

[7] = biological target: T3, human NaPi2b on NaPi2b-positive cell …; assay: flow cytometry on NaPi2b-positive HCC-78 cells, Alexa-dye-labeled anti-human IgG H+L secondary antibody, MFI ratio normalized to the non-specific binding control
Protocol: as §2

[8] = biological target: T3, human NaPi2b on NaPi2b-positive cell …; assay: flow cytometry on HCC-78 cells, one-site fit
Protocol: as §2

[9] = biological target: T3, human NaPi2b on NaPi2b-positive cell …; assay: flow cytometry on OVCAR-3 cells, one-site fit
Protocol: as §2

B1: AV-15 antibody (antibody, human IgG1, kappa, L234A L235A, V domains shown)
VH: EVQLVQSGAEVVKPGASVKMSCKASGYTFTGYNIHWVKQAPGQGLEWIGAIYPGNGDTSYKQKFRGRATLTADTSTSTVYMELSSLRSEDSAVYYCARGETARATFAYWGQGTLVTVSS
VL: DIQMTQSPSSLSASVGDRVTITCSASQDIGKFLNWYQQKPGKTVKVLIYYSSSLYSGVPSRFSGSGSGTDYTLTISSLQPEDFATYYCQQYSKVPLTFGQGTKLELKR
Kd [1]: 3.5 nM
Kd [2]: 0.0158 µg/mL
Kd [3]: 0.105 nM
Kd [4]: 6.6 nM
Kd [5]: 2.7 nM

B2: AV-18 antibody (antibody, human IgG1, kappa, L234A L235A, V domains shown)
VH: EVQLVQSGAEVVKPGASVKMSCKASGYTFTGYIIHWVKQAPGQGLEWIGAIYPGSGATSYKQKFRGRATLTADTSTSTVYMELSSLRSEDSAVYYCARGETARATFAYWGQGTLVTVSS
VL: DIQMTQSPSSLSASVGDRVTITCSASQDIGNFLNWYQQKPGKTVKVLIYYTSSLYSGVPSRFSGSGSGTDYTLTISSLQPEDFATYYCQQYSKLPLTFGQGTKLELKR
Kd [1]: 2.31 nM
Kd [2]: 0.0149 µg/mL
Kd [3]: 0.099 nM
Kd [4]: 3.8 nM
Kd [5]: 1.61 nM

B3: AV-21 antibody (antibody, human IgG1, kappa, L234A L235A, V domains shown)
VH: EVQLVQSGAEVVKPGASVKMSCKASGYTFTGQIIHWVKQAPGQGLEWIGAISPGNSGTSYKQKFRGRATLTADTSTSTVYMELSSLRSEDSAVYYCARGETARATFAYWGQGTLVTVSS
VL: DIQMTQSPSSLSASVGDRVTITCSASQDIGNFLNWYQQKPGKTVKVLIYYTSSLYSGVPSRFSGSGSGTDYTLTISSLQPEDFATYYCQQYSKLPLTFGQGTKLELKR
Kd [1]: 2.08 nM
Kd [2]: 0.0125 µg/mL
Kd [3]: 0.083 nM
Kd [4]: 3.5 nM
Kd [5]: 1.5 nM

B4: AV-29 antibody (antibody, human IgG1, kappa, L234A L235A, V domains shown)
VH: EVQLVQSGAEVVKPGASVKMSCKASGYTFTGYNILWVKQAPGQGLEWIGAIYPGNGGTSYKQKFRGRATITADTSTSTVYMELSSLRSEDSAVYYCARGEIARATFAYWGQGTLVTVSS
VL: DIQMTQSPSSLSASVGDRVTITCSASQDIGNFLNWYQQKPGKTVKVLIYYASSLYSGVPSRFSGSGSGTDYTLTISSLQPEDFATYYCQQYSKLPLTFGQGTKLELKR
Kd [1]: 2.66 nM
Kd [2]: 0.0124 µg/mL
Kd [3]: 0.082 nM
Kd [4]: 3.5 nM
Kd [5]: 1.91 nM

B5: Upifitamab (antibody, human IgG1, kappa, L234A L235A, V domains shown)
VH: EVQLVQSGAEVVKPGASVKMSCKASGYTFTGYNIHWVKQAPGQGLEWIGAIYPGNGDTSYKQKFRGRATLTADTSTSTVYMELSSLRSEDSAVYYCARGETARATFAYWGQGTLVTVSS
VL: DIQMTQSPSSLSASVGDRVTITCSASQDIGNFLNWYQQKPGKTVKVLIYYTSSLYSGVPSRFSGSGSGTDYTLTISSLQPEDFATYYCQQYSKLPLTFGQGTKLELKR
notes: Bought from MedChemExpress
EC50 (read off the curve) [6]: ~1 µg/mL
EC50 (read off the curve) [7]: ~1 µg/mL
Kd [8]: 1.27 µg/mL
Kd [9]: 1.11 µg/mL
